Data reported in US20020159958A1 (REGENTS OF UNIVERSITY OF CALIFORNIA, published 2002).

T1: purified streptococcal antigen (SA) I/II (Streptococcus mutans, UniProt P23504 39-1532)
T1 construct: Purified antigen as coated on ELISA plates; also called SA 1/11; purified SA I/II
T1 sequence (looked up): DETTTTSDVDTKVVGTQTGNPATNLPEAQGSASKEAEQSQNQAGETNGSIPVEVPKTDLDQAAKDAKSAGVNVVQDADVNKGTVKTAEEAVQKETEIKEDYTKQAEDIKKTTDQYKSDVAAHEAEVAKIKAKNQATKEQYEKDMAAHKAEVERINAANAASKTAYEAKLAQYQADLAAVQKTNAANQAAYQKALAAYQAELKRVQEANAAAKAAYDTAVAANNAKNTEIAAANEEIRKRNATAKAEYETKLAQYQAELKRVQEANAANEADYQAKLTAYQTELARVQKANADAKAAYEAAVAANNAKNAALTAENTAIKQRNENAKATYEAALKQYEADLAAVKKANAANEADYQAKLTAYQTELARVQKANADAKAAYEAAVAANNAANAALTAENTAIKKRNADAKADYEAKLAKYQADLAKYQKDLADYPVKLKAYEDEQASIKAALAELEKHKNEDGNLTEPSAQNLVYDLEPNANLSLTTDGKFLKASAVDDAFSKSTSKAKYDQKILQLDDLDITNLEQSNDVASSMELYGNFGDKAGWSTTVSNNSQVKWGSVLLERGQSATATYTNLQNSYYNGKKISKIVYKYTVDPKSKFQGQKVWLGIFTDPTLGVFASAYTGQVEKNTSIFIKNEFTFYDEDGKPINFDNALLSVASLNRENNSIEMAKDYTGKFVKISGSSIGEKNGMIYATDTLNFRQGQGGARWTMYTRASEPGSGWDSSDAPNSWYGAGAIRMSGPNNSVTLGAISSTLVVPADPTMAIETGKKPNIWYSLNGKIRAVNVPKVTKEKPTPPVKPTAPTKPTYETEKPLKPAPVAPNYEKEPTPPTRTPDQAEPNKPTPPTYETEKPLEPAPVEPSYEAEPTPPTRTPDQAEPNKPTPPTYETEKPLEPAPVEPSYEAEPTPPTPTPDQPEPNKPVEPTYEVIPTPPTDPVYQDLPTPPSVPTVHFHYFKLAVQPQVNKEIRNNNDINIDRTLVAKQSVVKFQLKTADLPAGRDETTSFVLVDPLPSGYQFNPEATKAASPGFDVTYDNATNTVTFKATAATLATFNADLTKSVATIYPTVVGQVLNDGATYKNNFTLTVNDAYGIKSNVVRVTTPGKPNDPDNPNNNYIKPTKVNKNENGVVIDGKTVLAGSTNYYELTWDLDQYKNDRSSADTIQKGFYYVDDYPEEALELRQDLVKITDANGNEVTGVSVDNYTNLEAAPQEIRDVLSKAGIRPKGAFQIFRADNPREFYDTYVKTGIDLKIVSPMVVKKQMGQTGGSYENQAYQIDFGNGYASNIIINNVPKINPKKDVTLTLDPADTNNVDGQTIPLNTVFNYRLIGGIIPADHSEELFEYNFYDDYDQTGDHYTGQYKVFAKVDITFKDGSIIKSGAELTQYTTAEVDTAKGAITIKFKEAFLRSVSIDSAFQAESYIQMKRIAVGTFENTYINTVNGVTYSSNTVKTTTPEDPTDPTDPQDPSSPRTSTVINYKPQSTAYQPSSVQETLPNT

B1: protection protein (amino acids 1-606 of rabbit polyimmunoglobulin receptor) expressed alone in plants (receptor)
chain: QSSLLGPSSIFGPGEVNVLEGDSVSITCYYPTTSVTRHSRKFWCREEESGRCVTLASTGYTSQEYSGRGKLTDFPDKGEFVVTVDQLTQNDSGSYKCGVGVNGRGLDFGVNVLVSQKPEPDDVVYKQYESYTVTITCPFTYATRQLKKSFYKVEDGELVLIIDSSSKEAKDPRYKGRITLQIQSTTAKEFTVTIKHLQLNDAGQYVCQSGSDPTAEEQNVDLRLLTPGLLYGNLGGSVTFECALDSEDANAVASLRQVRGGNVVIDSQGTIDPAFEGRILFTKAENGHFSVVIAGLRKEDTGNYLCGVQSNGQSGDGPTQLRQLFVNEEIDVSRSPPVLKGFPGGSVTIRCPYNPKRSDSHLQLYLWEGSQTRHLLVDSGEGLVQKDYTGRLALFEEPGNGTFSVVLNQLTAEDEGFYWCVSDDDESLTTSVKLQIVDGEPSPTIDKFTAVQGEPVEITCHFPCKYFSSEKYWCKWNDHGCEDLPTKLSSSGDLVKCNNNLVLTLTLDSVSEDDEGWYWCGAKDGHEFEEVAAVRVELTEPAKVAVEPAKVPVDPAKAAPAPAEEKAKARCPVPRRRQWYPLSRKLRTSCPEPRLLAEEVAVQSAE
notes: also called plants expressing only protection protein; free protection protein
B2: mouse J chain expressed alone in plants (other, UniProt P01592 22-159, looked up)
chain: GDDEATILADNKCMCTRVTSRIIPSTEDPNEDIVERNIRIVVPLNNRENISDPTSPLRRNFVYHLSDVCKKCDPVEVELEDQVVTATQSNICNEDDGVPETCYMYDRNKCYTTMVPLRYHGETKMVQAALTPDSCYPD
notes: Tested as crude plant extract; also called plants expressing only J chain

Key:
[1] = target: T1, purified streptococcal antigen (SA) I/II; experiment: ELISA on purified SA I/II, plant extract
[2] = target: T1, purified streptococcal antigen (SA) I/II; experiment: ELISA on SA I/II, plant extract

Binder	binding result [1]	binding result [2]
B1	no binding	–
B2	–	no binding
